Numbering of substitutions follows the chain as printed.
B1: 82F, 72A (protein, listed as Rattus norvegicus)
chain: AFDGTWKVDRNENYEKFMEKMGINVVKRKLGAHDNLKLTITQEGNKFTVKESSNFRNIDVVFELGVDFAYSAADGTELTGTFTMEGNKLVGKFKRVDNGKELIAVREISGNELIQTYTYEGVEAKRIFKKE
modifications: PEPTIDE (1)...(131) wild-type rat intestinal fatty acid binding protein
B2: 21I, 72A (protein, listed as Rattus norvegicus)
chain: B1 chain with M21I, F82W
modifications: PEPTIDE (1)...(131) wild-type rat intestinal fatty acid binding protein
B3: 78Y, 72A (protein, listed as Rattus norvegicus)
chain: B1 chain with L78Y, F82W
modifications: PEPTIDE (1)...(131) wild-type rat intestinal fatty acid binding protein
B4: 104Y, 72A (protein, listed as Rattus norvegicus)
chain: B1 chain with F82W, A104Y
modifications: PEPTIDE (1)...(131) wild-type rat intestinal fatty acid binding protein
B5: 106M, 72A (protein, listed as Rattus norvegicus)
chain: B1 chain with F82W, R106M
modifications: PEPTIDE (1)...(131) wild-type rat intestinal fatty acid binding protein
B6: 11W, 72A (protein, listed as Rattus norvegicus)
chain: B1 chain with N11W, F82W
modifications: PEPTIDE (1)...(131) wild-type rat intestinal fatty acid binding protein
B7: 78A, 72A (protein, listed as Rattus norvegicus)
chain: B1 chain with L78A, F82W
modifications: PEPTIDE (1)...(131) wild-type rat intestinal fatty acid binding protein
B8: 49D, 72A (protein, listed as Rattus norvegicus)
chain: B1 chain with V49D, F82W
modifications: PEPTIDE (1)...(131) wild-type rat intestinal fatty acid binding protein

experiment: Probe fluorescence ratio response to palmitic acid relative to ADIFAB2; type: binding; conditions: response relative to ADIFAB2
In short: (§1)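 Each fatty acid's response was expressed relative to ADIFAB2, the rI-FABP-L72A probe, as ΔR/ΔRreference. ΔR is the change in the background-corrected two-wavelength intensity ratio R=Fλ1/Fλ2 from its analyte-free baseline R0. Emission was read near about 420-480 nm for unbound and about 495-580 nm for FFA-bound probe.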

Molecule | DR/DR PA
B1 | 0.223
B2 | 0.162
B3 | 0.520
B4 | 0.140
B5 | 0.183
B6 | 0.199
B7 | 0.190
B8 | 0.161

experiment: Probe fluorescence ratio response to linoleic acid relative to ADIFAB2; type: binding; conditions: response relative to ADIFAB2
In short: as §1

Molecule | DR/DR LA
B1 | 0.422
B2 | 0.365
B3 | 0.908
B4 | 0.265
B5 | 0.485
B6 | 0.344
B7 | 0.372
B8 | 0.324

experiment: Probe fluorescence ratio response to oleic acid relative to ADIFAB2; type: binding; conditions: response relative to ADIFAB2
In short: as §1

Molecule | DR/DR OA
B1 | 0.403
B2 | 0.310
B3 | 0.845
B4 | 0.236
B5 | 0.510
B6 | 0.227
B7 | 0.350
B8 | 0.316

experiment: Probe fluorescence ratio response to linolenic acid relative to ADIFAB2; type: binding; conditions: response relative to ADIFAB2
In short: as §1

Molecule | DR/DR LNA
B1 | 0.334
B2 | 0.412
B3 | 0.871
B4 | 0.278
B5 | 0.490
B6 | 0.357
B7 | 0.429
B8 | 0.296

experiment: Probe fluorescence ratio response to arachidonic acid relative to ADIFAB2; type: binding; conditions: arachidonic acid; response relative to ADIFAB2
In short: as §1

Molecule | DR/DR AA
B1 | 1.029
B2 | 0.531
B3 | 1.172
B4 | 0.364
B5 | 0.554
B6 | 0.430
B7 | 0.433
B8 | 0.308
